Reference: paper doi:10.1101/2025.04.14.648762, “P-Rex1 Limits the Agonist-Induced Internalisation of GPCRs Independently of its Rac-GEF Activity” (bioRxiv, 2025)

Legend:
Experiment in all cases: pull-down; 5 pmol P-Rex1 or P-Rex2 protein (2.5 pmol for P-Rex1 mutants) with 5 pmol GST or GST-Grk2 in 20 µl detergent-free buffer (50 mM Hepes pH 7.2, 150 mM NaCl), 1 h on ice; isolated on magnetic glutathione agarose; beads washed in buffer with 1% NP-40; western blot
Settings in all cases: both partners purified
His-P-Rex2 (wild type) = biological target: T1, His-P-Rex2 (wild type) (human, UniProt Q70Z35 1-1606)
T1 construct: P-Rex2, human, wild type, subcloned into pENTR3C and recombined with pDEST10; also called wild type His-P-Rex2; source: baculovirus-infected Sf9 cells, purified (Ni-NTA agarose, desalting); not shown: His6, N-terminal, kept
T1 sequence (Q70Z35 whole entry): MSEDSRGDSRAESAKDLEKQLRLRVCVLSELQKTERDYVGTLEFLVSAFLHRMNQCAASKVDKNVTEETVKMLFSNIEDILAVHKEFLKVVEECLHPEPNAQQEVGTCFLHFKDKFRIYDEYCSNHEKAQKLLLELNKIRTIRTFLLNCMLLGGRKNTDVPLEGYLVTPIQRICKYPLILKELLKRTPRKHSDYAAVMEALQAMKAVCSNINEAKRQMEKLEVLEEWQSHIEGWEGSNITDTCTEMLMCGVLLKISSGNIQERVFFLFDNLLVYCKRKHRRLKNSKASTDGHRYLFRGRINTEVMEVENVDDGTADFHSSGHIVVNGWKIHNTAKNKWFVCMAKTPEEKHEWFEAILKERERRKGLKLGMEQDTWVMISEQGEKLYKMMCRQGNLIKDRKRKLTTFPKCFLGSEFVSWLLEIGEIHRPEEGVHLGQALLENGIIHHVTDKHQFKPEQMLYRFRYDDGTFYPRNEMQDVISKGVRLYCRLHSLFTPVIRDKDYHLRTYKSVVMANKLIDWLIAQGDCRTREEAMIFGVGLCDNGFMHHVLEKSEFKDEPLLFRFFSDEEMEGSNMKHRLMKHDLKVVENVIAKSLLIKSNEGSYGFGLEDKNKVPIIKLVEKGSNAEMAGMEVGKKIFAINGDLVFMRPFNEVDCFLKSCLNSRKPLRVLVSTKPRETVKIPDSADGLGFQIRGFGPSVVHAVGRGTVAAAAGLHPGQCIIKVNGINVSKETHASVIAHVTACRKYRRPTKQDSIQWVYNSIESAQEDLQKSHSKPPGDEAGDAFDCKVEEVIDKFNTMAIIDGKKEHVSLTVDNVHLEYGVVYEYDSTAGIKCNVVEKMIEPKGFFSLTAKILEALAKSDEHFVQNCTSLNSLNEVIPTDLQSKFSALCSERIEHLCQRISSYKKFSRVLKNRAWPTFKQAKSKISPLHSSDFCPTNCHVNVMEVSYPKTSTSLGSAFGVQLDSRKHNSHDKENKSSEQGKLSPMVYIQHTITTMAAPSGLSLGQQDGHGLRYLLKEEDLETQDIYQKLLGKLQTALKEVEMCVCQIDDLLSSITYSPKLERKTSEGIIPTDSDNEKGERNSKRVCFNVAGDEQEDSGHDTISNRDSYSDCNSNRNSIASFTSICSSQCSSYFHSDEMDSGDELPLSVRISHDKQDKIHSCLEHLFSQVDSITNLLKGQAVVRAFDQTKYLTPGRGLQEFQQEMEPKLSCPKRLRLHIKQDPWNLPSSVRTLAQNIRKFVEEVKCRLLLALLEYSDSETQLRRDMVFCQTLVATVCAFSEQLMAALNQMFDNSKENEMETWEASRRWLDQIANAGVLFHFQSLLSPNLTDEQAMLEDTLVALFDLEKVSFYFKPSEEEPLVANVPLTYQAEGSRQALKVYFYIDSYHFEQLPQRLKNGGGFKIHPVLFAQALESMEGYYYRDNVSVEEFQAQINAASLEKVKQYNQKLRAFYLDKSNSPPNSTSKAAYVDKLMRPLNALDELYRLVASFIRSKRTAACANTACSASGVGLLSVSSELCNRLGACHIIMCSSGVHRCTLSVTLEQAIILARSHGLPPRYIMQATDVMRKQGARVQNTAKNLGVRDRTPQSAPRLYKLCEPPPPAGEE

[1] = biological target: T2, GEF-dead His-P-Rex2 (P-Rex2^E30A,N212A) (human, UniProt Q70Z35 1-1606, E30A | N212A)
T2 construct: P-Rex2, human, with alanine mutations at Glu30 and Asn212 in the catalytic DH domain; also called GEF-dead P-Rex2; source: baculovirus-infected Sf9 cells, purified (Ni-NTA agarose, desalting); not shown: His6, N-terminal, kept
T2 sequence (Q70Z35 whole entry E30A/N212A, the tested form may be a part): as the sequence (Q70Z35 whole entry) above, with E30A, N212A counted along it

[2] = biological target: T3, EE-P-Rex1 (purified recombinant wild type) (human, UniProt Q8TCU6 1-1659)
T3 construct: P-Rex1, human, wild type recombinant protein; also called wild type EE-P-Rex1; source: baculovirus-infected Sf9 cells, purified using the EE tag
T3 sequence (Q8TCU6 whole entry): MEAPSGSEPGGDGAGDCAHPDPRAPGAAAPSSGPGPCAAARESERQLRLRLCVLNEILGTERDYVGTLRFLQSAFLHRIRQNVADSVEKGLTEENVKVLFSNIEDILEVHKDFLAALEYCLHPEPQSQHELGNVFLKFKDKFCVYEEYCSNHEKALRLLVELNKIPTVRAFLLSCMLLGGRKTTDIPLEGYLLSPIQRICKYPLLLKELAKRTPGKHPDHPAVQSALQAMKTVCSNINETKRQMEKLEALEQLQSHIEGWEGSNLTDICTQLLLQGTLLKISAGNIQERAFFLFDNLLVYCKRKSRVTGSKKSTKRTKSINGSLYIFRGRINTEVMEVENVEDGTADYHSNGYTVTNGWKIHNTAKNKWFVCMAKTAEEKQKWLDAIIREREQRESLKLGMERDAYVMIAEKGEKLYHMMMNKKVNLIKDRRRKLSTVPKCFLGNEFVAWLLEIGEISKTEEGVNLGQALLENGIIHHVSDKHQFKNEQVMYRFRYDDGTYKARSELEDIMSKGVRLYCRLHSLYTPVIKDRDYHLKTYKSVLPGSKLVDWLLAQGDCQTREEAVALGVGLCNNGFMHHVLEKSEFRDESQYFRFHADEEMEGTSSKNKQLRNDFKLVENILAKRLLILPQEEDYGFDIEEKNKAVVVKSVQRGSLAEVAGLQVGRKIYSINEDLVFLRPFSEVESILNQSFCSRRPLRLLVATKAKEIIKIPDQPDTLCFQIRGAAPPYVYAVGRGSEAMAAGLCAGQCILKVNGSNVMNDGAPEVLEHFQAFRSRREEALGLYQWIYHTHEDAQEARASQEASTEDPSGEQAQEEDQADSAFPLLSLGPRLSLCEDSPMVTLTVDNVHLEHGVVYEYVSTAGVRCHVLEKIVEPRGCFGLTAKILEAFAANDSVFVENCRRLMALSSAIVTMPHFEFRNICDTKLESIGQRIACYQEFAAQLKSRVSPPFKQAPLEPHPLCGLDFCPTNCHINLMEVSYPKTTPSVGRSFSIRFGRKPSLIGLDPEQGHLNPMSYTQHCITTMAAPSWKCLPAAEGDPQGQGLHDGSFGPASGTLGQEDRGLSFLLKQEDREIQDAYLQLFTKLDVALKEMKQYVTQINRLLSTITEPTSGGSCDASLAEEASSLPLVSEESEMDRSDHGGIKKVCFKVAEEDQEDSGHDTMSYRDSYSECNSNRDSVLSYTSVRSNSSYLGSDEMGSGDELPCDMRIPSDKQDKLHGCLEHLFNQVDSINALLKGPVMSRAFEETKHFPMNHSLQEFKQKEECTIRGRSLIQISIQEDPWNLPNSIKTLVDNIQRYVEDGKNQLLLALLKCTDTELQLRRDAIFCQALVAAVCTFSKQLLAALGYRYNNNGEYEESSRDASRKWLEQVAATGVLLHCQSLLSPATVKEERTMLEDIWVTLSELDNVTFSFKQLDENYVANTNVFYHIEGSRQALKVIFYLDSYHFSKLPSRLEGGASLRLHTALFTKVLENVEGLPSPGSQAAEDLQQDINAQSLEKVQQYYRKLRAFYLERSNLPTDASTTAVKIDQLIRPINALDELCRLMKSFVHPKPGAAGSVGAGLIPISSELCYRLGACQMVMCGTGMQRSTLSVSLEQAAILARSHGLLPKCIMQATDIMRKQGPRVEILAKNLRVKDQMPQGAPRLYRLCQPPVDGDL

GEF-dead EE-P-Rex1 = biological target: T4, GEF-dead EE-P-Rex1 (human, UniProt Q8TCU6 1-1659, E56A | N238A)
T4 construct: P-Rex1, human, with point mutations E56A and N238A in the DH domain; also called GEF-dead P-Rex1; P-Rex1 E56A N238A; source: baculovirus-infected Sf9 cells, purified using the EE tag
T4 sequence (Q8TCU6 whole entry E56A/N238A, the tested form may be a part): as the sequence (Q8TCU6 whole entry) above, with E56A, N238A counted along it

Measured: binding result

B1: GST-Grk2 (enzyme, human, UniProt P25098 1-689, looked up)
chain: MADLEAVLADVSYLMAMEKSKATPAARASKKILLPEPSIRSVMQKYLEDRGEVTFEKIFSQKLGYLLFRDFCLNHLEEARPLVEFYEEIKKYEKLETEEERVARSREIFDSYIMKELLACSHPFSKSATEHVQGHLGKKQVPPDLFQPYIEEICQNLRGDVFQKFIESDKFTRFCQWKNVELNIHLTMNDFSVHRIIGRGGFGEVYGCRKADTGKMYAMKCLDKKRIKMKQGETLALNERIMLSLVSTGDCPFIVCMSYAFHTPDKLSFILDLMNGGDLHYHLSQHGVFSEADMRFYAAEIILGLEHMHNRFVVYRDLKPANILLDEHGHVRISDLGLACDFSKKKPHASVGTHGYMAPEVLQKGVAYDSSADWFSLGCMLFKLLRGHSPFRQHKTKDKHEIDRMTLTMAVELPDSFSPELRSLLEGLLQRDVNRRLGCLGRGAQEVKESPFFRSLDWQMVFLQKYPPPLIPPRGEVNAADAFDIGSFDEEDTKGIKLLDSDQELYRNFPLTISERWQQEVAETVFDTINAETDRLEARKKAKNKQLGHEEDYALGKDCIMHGYMSKMGNPFLTQWQRRYFYLFPNRLEWRGEGEAPQSLLTMEEIQSVEETQIKERKCLLLKIRGGKQFILQCDSDPELVQWKKELRDAYREAQQLVQRVPKMKNKPRSPVVELSKVPLVQRGSANGL
notes: G protein-coupled receptor kinase 2 (Grk2), human, recombinant; also called recombinant human GST-Grk2; source: bought: Abcam (ab125620), Sf9 cell-derived recombinant
binds: all assays above
